Experimental data from US20050069869A1 (UNIVERSITY OF MASSACHUSETTS, published 2005).

What was measured:
[1] = target: SARS-CoV S protein of the virus (Urbani strain; virions and infected Vero cell extracts) (SARS-CoV, UniProt P59594 15-1190); assay: cell-based or functional assay
[2] = target: S(590), N-terminal 590 amino acids of the SARS-CoV S protein (SARS-CoV, UniProt P59594 15-590); assay: FACS; inhibition of myc-tagged S(590) binding to Vero E6 cells
[3] = target: S(1255), full length S protein with transmembrane and cytoplasmic domains, on transfected HEK 293 cells (SARS-CoV, UniProt P59594 15-1190); assay: FACS on HEK 293 cells transfected with S(1255); given as ED50
[4] = target: T1, S(130), amino acids 1-130 of the SARS-CoV S protein (SARS-CoV, UniProt P59594 15-130); assay: immunoprecipitation from culture supernatant, Western blot with anti-His6
T1 sequence: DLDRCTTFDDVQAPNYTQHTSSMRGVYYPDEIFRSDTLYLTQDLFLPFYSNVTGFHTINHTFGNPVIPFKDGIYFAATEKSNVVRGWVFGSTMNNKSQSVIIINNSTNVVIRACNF

[5] = target: T2, S(150), amino acids 1-150 of the SARS-CoV S protein (SARS-CoV, UniProt P59594 15-150); assay: as above
T2 sequence: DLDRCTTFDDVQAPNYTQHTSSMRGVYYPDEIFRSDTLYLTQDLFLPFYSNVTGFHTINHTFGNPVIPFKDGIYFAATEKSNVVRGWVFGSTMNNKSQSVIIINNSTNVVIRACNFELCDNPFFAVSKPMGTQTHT

[6] = target: T3, S(170), amino acids 1-170 of the SARS-CoV S protein (SARS-CoV, UniProt P59594 15-170); assay: as above
T3 sequence: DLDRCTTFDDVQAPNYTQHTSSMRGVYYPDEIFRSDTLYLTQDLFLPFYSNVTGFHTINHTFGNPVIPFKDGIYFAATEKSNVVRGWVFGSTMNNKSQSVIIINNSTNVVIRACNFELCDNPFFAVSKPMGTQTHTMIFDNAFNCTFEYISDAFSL

[7] = target: T4, S(269), amino acids 1-269 of the SARS-CoV S protein (SARS-CoV, UniProt P59594 15-269); assay: as above
T4 sequence: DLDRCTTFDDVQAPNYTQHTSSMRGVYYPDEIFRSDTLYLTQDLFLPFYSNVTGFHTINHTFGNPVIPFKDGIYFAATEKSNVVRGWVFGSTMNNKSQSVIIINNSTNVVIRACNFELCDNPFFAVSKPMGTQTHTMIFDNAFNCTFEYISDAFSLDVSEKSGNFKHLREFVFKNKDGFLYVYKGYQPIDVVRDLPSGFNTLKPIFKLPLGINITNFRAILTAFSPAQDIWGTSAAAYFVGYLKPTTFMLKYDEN

[8] = target: S(470), amino acids 1-470 of the SARS-CoV S protein (SARS-CoV, UniProt P59594 15-470); assay: as above
[9] = target: S(490), amino acids 1-490 of the SARS-CoV S protein (SARS-CoV, UniProt P59594 15-490); assay: as above

B1: human monoclonal antibody 201.2 (antibody, V domains shown)
VH: EVQLVQSGGGLVHPGGSLRLSCAGSGFTFSSYDMHWVRQAPGKGLEWVSVVGTGDGTYYADSVKGRFTISRDNAKNSLYLQMNSLRAEDMAVYYCARDQWWGSDYWGQGTLVTVSS
VL: EIVLTQSPATLSLSPGERATLSCRASQSVSSYLAWYQQKPGQAPRLLIYDASNRATGIPARFSGSGSGTDFTLTISSLEPEDFAVYYCQQRSNWPLTFGGGTKVEIK
notes: also called 508-201; 7-508-201
Viral Neut. in vitro (IC50, nM) [1]: 0.7 nM | IC50 [2]: 2 nM | EC50 [3]: 6 nM | binding result [4]: no binding | binding result [5]: no binding | binding result [6]: no binding | binding result [7]: no binding | binding result [8]: no binding | binding result [9]: no binding
